Reference: patent US20210009993A1 (ROCHE DIAGNOSTICS OPERATIONS, published 2021)
Numbering of substitutions follows the chain as printed. Names and notes keep the numbering of the source.

B1: anti-cTnT Fab fragment, CDR combination 1 (Y34F) (Fab, V domains shown)
VH: EVQLQQSGPELVKPGASVKMSCKASGYTFTDYFMKWVKQSHGKSLEWIGDINPNNGETFYNQKFKDKATLTVDKSSSTAYMQLNSLTSEDSAVYYCATRVFDYWGQGTTLTVSS
VL: DIVLTQSPASLAVSLGQRATISCKASQSVDYDGTSYMNWFQQKAGQPPKRLIYAASNLESGIPARFSGRGSGTDFALNIHPVEEEDAATYYCQQSNEDPYTFGGGTKLEIKR
notes: tested from E. coli lysate; also called mutant 1
B2: anti-cTnT Fab fragment, CDR combination 19 (Y104F) (Fab, V domains shown)
VH: B1 VH with F33Y, Y103F
VL: B1 VL
notes: tested from E. coli lysate; also called mutant 19
B3: anti-cTnT Fab fragment, CDR combination 9 (Y34I) (Fab, V domains shown)
VH: B1 VH with F33I
VL: B1 VL
notes: tested from E. coli lysate; also called mutant 9
B4: anti-cTnT Fab fragment, CDR combination 21 (F60W, V101Y) (Fab, V domains shown)
VH: B1 VH with F33Y, F59W, V100Y
VL: B1 VL
notes: tested from E. coli lysate; also called mutant 21

Target: T1, human cardiac troponin T (cTnT) (human, UniProt P45379 2-298)
T1 construct: also called Recombinant human TnT (Roche, 37 kDa)
Assay: SPR, Biacore T200, 37 C; Fab captured via anti-human F(ab')2, cTnT analyte
Procedure: Detailed kinetic investigations were performed at 37° C. on a GE Healthcare T200 instrument. A Biacore CM-5 series S sensor was mounted into the instrument and was preconditioned according to the manufacturer's instructions. The system buffer was HBS-ET (10 mM HEPES (pH 7.4), 150 mM NaCl, 1 mM EDTA, 0.05% (w/v) Tween® 20). The sample buffer was the system buffer supplemented with 1 mg/ml CMD (Carboxymethyldextran, Fluka). In one embodiment an anti-human antibody capture system was established on the CMS biosensor. GAHF(ab′)2, (goat anti human F(ab′)2) (Code Nr.: 109-005-097, lot #13.12.2005, Jackson Immuno Research) was immobilized according to the manufacturer's instructions using NHS/EDC chemistry. 30 μg/ml GAHF(ab′)2 in 10 mM sodium acetate buffer (pH 5.0) were preconcentrated to the flow cells 1, 2, 3 and 4 and were immobilized with 10.000 RU GAHF(ab′)2. The sensor was subsequently saturated with 1 M ethanolamine pH 8.5.
Chimeric anti-TnT antibody fragments were periplasmatically expressed in E. coli cells as described and were lyzed by methods known (for technical details see: Andersen, D. C. & Reilly, D. E. (2004); Production technologies for monoclonal antibodies and their fragments. Curr Opin Biotechnol 15, 456-62). The lysates were diluted 1:20 in sample buffer. Fab fragments were captured via their humanized framework regions from the expression lysates on the biosensor at a flow rate of 10 μl/min for 1 min followed by a 2 min washing step with 10-fold concentrated HBS-EP buffer at 30 μl/min. The Fab fragment capture level (CL) in response units (RU) was monitored. Recombinant human TnT (Roche, 37 kDa) was diluted in sample buffer at 90 nM and a concentration series was produced with […], 30 nM, 11 nM, 3.3 nM, 1.1 nM, 0 nM, 3.3 nM TnT concentration. The analyte concentration series were 80 μl/min for 3 min association phase and the dissociation phase was monitored for 3 min.
The kinetic parameters ka [1/Ms], kd [1/s], t1/2 diss [min], KD [M] and the binding stoichiometry (Molar Ratio) (for details see: Schraeml, M. & Biehl, M. (2012); Kinetic screening in the antibody development process. Methods Mol Biol 901, 171-81.) of the cTnT analyte were determined for each Fab fragment mutant with the Biaevaluation Software (GE healthcare) according to the manufacturer's instructions.

| Binder | Kd | also measured |
| --- | --- | --- |
| B1 | 0.61 nM |  |
| B2 | 0.48 nM |  |
| B3 |  | MR (Molar Ratio): 0.6 |
| B4 |  | t/2-diss: 3 min |
